# In patent US20170305981A1 (UNIVERSITY OF CHICAGO, published 2017):
# Experiments:
# [1] = biological target: T1, hepatic lipase (HL) on hepatocyte (HepG2) cells (UniProt P11150 23-499, limits assumed); assay: cell-based or functional assay
# T1 sequence (looked up): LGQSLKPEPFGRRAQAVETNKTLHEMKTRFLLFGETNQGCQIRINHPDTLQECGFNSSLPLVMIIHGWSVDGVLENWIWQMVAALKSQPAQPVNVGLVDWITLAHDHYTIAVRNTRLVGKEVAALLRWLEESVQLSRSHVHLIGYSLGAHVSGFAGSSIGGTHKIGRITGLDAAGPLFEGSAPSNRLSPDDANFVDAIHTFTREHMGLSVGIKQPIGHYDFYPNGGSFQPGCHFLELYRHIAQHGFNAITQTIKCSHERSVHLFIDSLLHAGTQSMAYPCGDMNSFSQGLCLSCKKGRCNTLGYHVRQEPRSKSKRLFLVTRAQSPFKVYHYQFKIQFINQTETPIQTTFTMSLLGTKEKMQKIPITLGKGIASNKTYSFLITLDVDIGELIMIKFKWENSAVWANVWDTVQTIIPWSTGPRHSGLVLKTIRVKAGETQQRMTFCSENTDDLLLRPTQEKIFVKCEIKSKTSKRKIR
# [2] = biological target: lipoprotein lipase (LpL), SIGMA; assay: cell-based or functional assay
# Sequence of lipoprotein lipase (LpL), SIGMA (P11151 29-478): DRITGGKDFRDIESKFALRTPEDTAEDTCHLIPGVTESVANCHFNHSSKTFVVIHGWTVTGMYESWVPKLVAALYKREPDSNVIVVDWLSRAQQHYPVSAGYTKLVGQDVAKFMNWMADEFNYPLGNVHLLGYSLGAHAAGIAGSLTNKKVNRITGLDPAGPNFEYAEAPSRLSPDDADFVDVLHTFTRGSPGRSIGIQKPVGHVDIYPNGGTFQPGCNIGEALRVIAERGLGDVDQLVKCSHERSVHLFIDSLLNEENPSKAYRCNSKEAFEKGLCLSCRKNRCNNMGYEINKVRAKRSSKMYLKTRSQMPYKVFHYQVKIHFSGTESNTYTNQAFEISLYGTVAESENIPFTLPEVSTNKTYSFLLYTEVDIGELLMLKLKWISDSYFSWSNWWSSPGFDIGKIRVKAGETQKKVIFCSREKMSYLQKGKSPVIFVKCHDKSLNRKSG
binder,measurement,setting,value
ARLSRCVQVLSRKLTLKAKALHARIQQNLDQLREELSRA [AV199-237],hepatic lipase activity in cell culture,[1],~3 fold
same,"hepatic lipase activity in live hepatocytes, 10 µM peptide",[1],~2.8 fold
ARLSRCVQVLSRKLTLKAKALKARIQQNLDQLRE [AV-H/K],"LpL activity in the absence of VLDL, 10 µM peptide",[2],~1.6 fold
same,"LpL activity in the presence of VLDL, 10 µM peptide",[2],~8 fold
same,"LpL activity in the presence of VLDL, relative to AV199-232",[2],44%
ARLSRCVQVFSRKLTLKAKALKARIQQNFDQLRE [AV-H/K-2F],"lipase stimulating activity, peptide (80 µg/ml) preincubated with VLDL (20 µg/ml)",[2],~2 fold
